Where two headings read alike, the source gives them in different places.
What was measured:
PP1GL = experiment: Phosphorylase phosphatase activity of PP1GL (hepatic glycogen particles); format: biochemical, rat; details: hepatic glycogen particles containing PP1-GL
Experimental: Hepatic glycogen particles were diluted in assay buffer to 0.6 phosphorylase phosphatase (PhP) mU per ml, incubated for 15 minutes at 30° C. with GM-(G63-T93) (closed circles), GM-(G63-K80) (open circles) or GM-(G63-N75) (closed triangles) and assayed as described in Example 1. The open triangles show the effect of GM-(G63-N75) which had been phosphorylated at Ser67 by PKA (pGM-(G63-N75)). Similar results were obtained in four experiments.
(A) Hepatic glycogen protein particles containing PP1-GL were diluted and incubated for 15 min at 30° C. with the indicated concentrations of either M110[M1-F38] (open circles) or M110[M1-K35] (closed circles) and the phosphatase reactions were initiated by addition of ^32P-labelled glycogen phosphorylase. The results are expressed as a percentage of the activity determined in control incubations where the M110 peptides were omitted. Similar results were obtained in three separate experiments. (B) The experiment was carried out as in (A), except that the peptide GM[G63-N75] (“wild type”, WT) and variants in which either Val 66 (V66A) (closed triangles) or Phe 68 (F68A) (closed circles) were changed to Ala, were used instead of the M110 peptides. Similar results were obtained in three separate experiments.
The myosin-associated form of PP1 (PP1M) was from chicken gizzard and the glycogen-associated form of PP1 (PP1G) from rabbit skeletal muscle. […]

PP1c [1] = target: T1, PP1c (Oryctolagus cuniculus, UniProt P62143); experiment: Phosphorylase phosphatase activity of PP1c; format: biochemical, rabbit
T1 construct: from tissue; host or cells: rabbit skeletal muscle (PP1G dissociated with LiBr)
Experimental: (§1) A,B; Effects of M110-(M1-E309) (closed circles), M110-(M1-F38) (open circles) and M110-(D39-E309) (open triangles) on the MLC20 phosphatase […] and phosphorylase phosphatase (B) activities of PP1c were measured after incubating PP1c for 15 minutes at 30° C. with each fragment. The results are presented as a percentage of those obtained in experiments where the M110 fragments were omitted.
(§2) C,D; The effect of M110-(M1-A150) (open circles) and M110-(L24-Y496) (closed circles) on the MLC20 phosphatase (C) and phosphorylase phosphatase (D) activities of PP1c were measured as in A,B.
(B) The phosphorylase phosphatase activity of PP1c was assayed as in A in the presence or absence of 1 μM GM-(G63-T93) and 1.0 nM M110-(M1-E309). The results are presented (SEM for three experiments) as a percentage of the PP1c activity measured in the absence of GM-(63-T93), M110-(M1-F38) or M110-(M1-E309).
(§3) The myosin-associated form of PP1 (PP1M) was from chicken gizzard and the glycogen-associated form of PP1 (PP1G) from rabbit skeletal muscle. The β isoform of PP1c was released from PP1G by incubation for 2 hours in 2M LiBr, then purified by gel-filtration on a 30×1 cm column of Superose 12 (Pharmacia, Milton Keynes, U.K.) in the presence of 0.5M LiBr. Glycogen protein particles from rat liver were used as the source of hepatic PP1G Digoxygenin-labelled PP1c (γ1-isoform, hereafter termed PP1) was prepared as in [9]. GL was expressed in E. coli as a glutathione-S-transferase (GST) fusion protein [7], termed GST-GL. The catalytic subunit of PP2A from bovine heart (PP2AC) was provided by Dr R. MacKintosh in this Unit. The phosphorylatable myosin light chain (MLC20) and heavy meromyosin from chicken gizzard were a gift from Dr M. Ikebe (Case Western Reserve University, Cleveland, USA). Thrombin and benzamidine-Agarose were purchased from Sigma (Poole, UK).
(§4) ^32P-labelled rabbit skeletal muscle phosphorylase a (containing 1.0 mol phosphate per mol subunit) was prepared by phosphorylation with phosphorylase kinase, ^32P-labelled rabbit skeletal muscle glycogen synthase (containing 1.5 mol/mol subunit in the sites 3 region) was prepared by phosphorylation with glycogen synthase kinase-3 [24]). ^32P-labelled chicken gizzard MLC20 and ^32P-labelled chicken gizzard heavy meromyosin (containing 1.0 mol phosphate per mol subunit) were prepared by phosphorylation with smooth muscle myosin light chain kinase. The dephosphorylation of phosphorylase a (10 μM), glycogen synthase (1 μM) and MLC20 (1 μM) and heavy meromyosin (1 μM) was carried out as in [24]. One unit of activity (U) was that amount which released […] of phosphate in one minute.
(§5) PP1c was isolated from the rabbit skeletal muscle PP1-GM complex as described previously (Johnson et al, 1996). Glycogen particles isolated from rat liver (Schelling el al, 1988) served as the source of PP1-GL. The dephosphorylation of glycogen phosphorylase (10 μM) and the isolated MLC20 of smooth muscle myosin (1 μM) by PP1c was carried out as described previously (Cohen et al., 1988; Alessi et al., 1992).

PP1c [2] = target: T1, PP1c; experiment: MLC20 (myosin P-light chain) phosphatase activity of PP1c; format: biochemical
Experimental: as §1, §2
(A) The MLC20 phosphatase activity of PP1c was assayed after incubation for 15 minutes at 30° C. in the presence or absence of 1 μM GM-(G63-T93) and either 0.1 μM M110-(M1-F38) or 0.1 nM M110-(M1-E309).
(1-38, open circles) or M110[M1-K35] (1-35, closed circles) were incubated with PP1c for 15 min at 30° C. and reactions started with the ^32P-labelled MLC20 substrate. The results are expressed as a % of the activity determined in control incubations where the M110 peptides were omitted (100%). Similar results were obtained in three separate experiments.
as §3, §4, §5
^32P-labelled myosin P-light chains containing 1.0 mol phosphate per mol subunit was prepared by phosphorylation with smooth muscle myosin light chain kinase. The dephosphorylation of myosin P-light chain (1 μM) was carried out as in [4] and one unit of activity (U) was that amount which catalysed the release of 1 μmole of phosphate in one min. When assaying PP1M in immunoprecipitates from the myofibrillar extracts, the tubes were shaken continuously and 3 nM okadaic acid was included to inhibit any PP2A present.

[3] = tested on: MLC20 and glycogen phosphorylase; experiment: MLC20 phosphatase:phosphorylase phosphatase activity ratio of PP1 preparations; format: biochemical
Experimental: The M110 and M21 subunits are marked. The activity ratio, MLC20 phosphatase (MP):phosphorylase phosphatase (PhP) of the two preparations is also shown. Similar results were obtained in three different experiments. The activity ratio MP:PhP of PP1c is 0.07.
as §4
PP1M (0.01 ml, 0.4U/ml) was dissociated by incubation for 30 minutes with 500 μM arachidonic acid and then for 30 minutes with 0.08 ml of packed Protein G-Sepharose coupled to 0.08 mg of affinity purified anti-M21 antibody. The Protein G-Sepharose was pelleted, and the supernatant diluted at least 15-fold to allow the M110 subunit and PP1c to recombine. […]

myosin = target: T2, myosin (Gallus gallus, UniProt P10587); experiment: Myosin binding assay (pelleting with myosin); parameters: species or system chicken; details: myosin 1 μM, 15 min 0° C.
T2 construct: from tissue; host or cells: chicken gizzard
How it was run: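 PP1M, PP1c, PP1M(ΔM21) or M110 fragments (30 nM; M110 fragments and M21 at 100 nM) incubated 15 min at 0° C with 1 μM myosin in 10 mM Hepes pH 7.5, 50 mM KCl, 5 mM MgCl2, then centrifuged 2 min at 13,000×g. Supernatant, pellet and total analysed by immunoblot or P-light chain phosphatase activity.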

M21 subunit = experiment: Far Western blotting: interaction with the M21 subunit; format: binding, chicken; details: probe 0.2 μg/ml
Experimental: A) PP1M 5 μg (track 1), 10 μg bacterial extract containing M110-(R714-I1004) (track 2), MBP-M110-(R714-I004) 1 μg (track 3), MBP-M110-(R714-L934) 1 μg (track 4), MBP-M110-(K933-I1004) 1 μg (track 5), MBP 1 μg (track 6), M110-(M1-E309) 2 μg (lane 7) and M110-(M1-S477) 2 μg (track 8) were run on a 12% SDS/polyacrylamide gel and stained with Coomassie Blue. B) same as A) except that 10-fold less protein was electrophoresed and after transfer to nitrocellulose the proteins were probed with digoxigenin-labelled M21 subunit (0.2 μg/ml). C) same as B) except that, after electrophoresis, the proteins were transferred to nitrocellulose and probed with digoxigenin-labelled M21-(M1-L146) (0.2 μg/ml).
A) GST-M21 5 μg (track 1), M21 5 μg (track 2), M21-(M1-L146) 5 μg (track 3), M21-(M1-E110) 20 μg (track 4) and M21-(E110-K186) 5 μg (track 5) were run on 16.5% polyacrylamide gels and stained with Coomassie Blue. The marker proteins ovalbumin (43 kDa) and carbonic anhydrase (29 kDa) are indicated. B) GST-M21 0.5 μg (track 1), M21 0.5 μg (track 2), M21-M1-L146) 0.5 μg (track 3), M21-(M1-E110) 5 μg (track 4) and M21-(E110-K186) 5 μg (track 5) were electrophoresed as in A) and after transfer to nitrocellulose the blots were probed with digoxigenin-labelled MBP-M110-(K933-I1004) (0.2 μg/Ml). C) same as B) except that, after electrophoresis, the proteins were transferred to nitrocellulose and probed with digoxigenin-labelled M21 subunit (0.2 μg/ml).
PP1M (0.5 μAg) was electrophoresed on a 12% SDS/polyacrylamide gel, transferred to nitrocellulose and probed with digoxigenin-labelled M21 subunit (0.2 μg/ml) (track 1) or digoxigenin-labelled M21-(M1-L146) (0.2 μg/ml) (track 2). The positions of the M110 subunit, the M21 subunit and PP1c are marked.
Proteins were labelled with digoxigenin and Far Western analyses carried out as described, except that the digoxigenin-labelled probe was used at a concentration of 0.2 μg/ml instead of 2 μg/ml. SDS/polyacrylamide gel electrophoresis was carried out on 7.5-15% gels according to Laemmli and on 16.5% gels according to Schagger and von Jagow. Protein was estimated according to Bradford.

PP1c (γ1-isoform) = PP1c (γ1-isoform) (Homo sapiens, UniProt P36873); experiment: Far Western: GST-GM fusion proteins probed with digoxygenin-labelled PP1γ; format: binding; details: GST-fusion proteins on blot probed with digoxygenin-labelled PP1γ
Excerpt: GST-GM fusion proteins were electrophoresed on 10% SDS/polyacrylamide gels and stained with Coomassie blue (lanes 1-3) or, after transfer to nitrocellulose, probed with digoxygenin-labelled PP1γ (lanes 4-6) as in [9]. Lanes 1 and 4, GST-GM-(E2-D118); Lanes 2 and 5, GST-GM-(H100-P350); Lanes 3 and 6, GST. The positions of the marker proteins glycogen phosphorylase (97 kDa), bovine serum albumin (66 kDa), ovalbumin (43 kDa), carbonic anhydrase (29 kDa) and soybean trypsin inhibitor (20 kDa) are indicated.
as §3
The amino acid sequence of rat hepatic GL is 23% identical (39% similar) to residues 1-286 of GM from human skeletal muscle. […] Fusion proteins in which GST was linked to fragments of GM were therefore tested for their ability to bind to PP1c. […] We therefore synthesised GM-(G63-T93) and examined its effect on the enzymatic properties of PP1GL, the form of PP1 associated with rat hepatic protein-glycogen particles.

T1 sequence (P62143 whole entry): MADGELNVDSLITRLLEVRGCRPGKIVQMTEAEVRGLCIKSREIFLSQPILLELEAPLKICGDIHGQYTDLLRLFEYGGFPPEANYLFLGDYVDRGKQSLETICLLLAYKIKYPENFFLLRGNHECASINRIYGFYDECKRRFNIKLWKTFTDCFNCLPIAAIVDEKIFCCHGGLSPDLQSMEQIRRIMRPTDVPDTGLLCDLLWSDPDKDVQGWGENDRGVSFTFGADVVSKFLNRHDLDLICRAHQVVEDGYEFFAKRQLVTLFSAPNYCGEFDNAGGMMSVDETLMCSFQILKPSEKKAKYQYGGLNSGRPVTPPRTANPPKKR
T2 sequence (P10587 whole entry): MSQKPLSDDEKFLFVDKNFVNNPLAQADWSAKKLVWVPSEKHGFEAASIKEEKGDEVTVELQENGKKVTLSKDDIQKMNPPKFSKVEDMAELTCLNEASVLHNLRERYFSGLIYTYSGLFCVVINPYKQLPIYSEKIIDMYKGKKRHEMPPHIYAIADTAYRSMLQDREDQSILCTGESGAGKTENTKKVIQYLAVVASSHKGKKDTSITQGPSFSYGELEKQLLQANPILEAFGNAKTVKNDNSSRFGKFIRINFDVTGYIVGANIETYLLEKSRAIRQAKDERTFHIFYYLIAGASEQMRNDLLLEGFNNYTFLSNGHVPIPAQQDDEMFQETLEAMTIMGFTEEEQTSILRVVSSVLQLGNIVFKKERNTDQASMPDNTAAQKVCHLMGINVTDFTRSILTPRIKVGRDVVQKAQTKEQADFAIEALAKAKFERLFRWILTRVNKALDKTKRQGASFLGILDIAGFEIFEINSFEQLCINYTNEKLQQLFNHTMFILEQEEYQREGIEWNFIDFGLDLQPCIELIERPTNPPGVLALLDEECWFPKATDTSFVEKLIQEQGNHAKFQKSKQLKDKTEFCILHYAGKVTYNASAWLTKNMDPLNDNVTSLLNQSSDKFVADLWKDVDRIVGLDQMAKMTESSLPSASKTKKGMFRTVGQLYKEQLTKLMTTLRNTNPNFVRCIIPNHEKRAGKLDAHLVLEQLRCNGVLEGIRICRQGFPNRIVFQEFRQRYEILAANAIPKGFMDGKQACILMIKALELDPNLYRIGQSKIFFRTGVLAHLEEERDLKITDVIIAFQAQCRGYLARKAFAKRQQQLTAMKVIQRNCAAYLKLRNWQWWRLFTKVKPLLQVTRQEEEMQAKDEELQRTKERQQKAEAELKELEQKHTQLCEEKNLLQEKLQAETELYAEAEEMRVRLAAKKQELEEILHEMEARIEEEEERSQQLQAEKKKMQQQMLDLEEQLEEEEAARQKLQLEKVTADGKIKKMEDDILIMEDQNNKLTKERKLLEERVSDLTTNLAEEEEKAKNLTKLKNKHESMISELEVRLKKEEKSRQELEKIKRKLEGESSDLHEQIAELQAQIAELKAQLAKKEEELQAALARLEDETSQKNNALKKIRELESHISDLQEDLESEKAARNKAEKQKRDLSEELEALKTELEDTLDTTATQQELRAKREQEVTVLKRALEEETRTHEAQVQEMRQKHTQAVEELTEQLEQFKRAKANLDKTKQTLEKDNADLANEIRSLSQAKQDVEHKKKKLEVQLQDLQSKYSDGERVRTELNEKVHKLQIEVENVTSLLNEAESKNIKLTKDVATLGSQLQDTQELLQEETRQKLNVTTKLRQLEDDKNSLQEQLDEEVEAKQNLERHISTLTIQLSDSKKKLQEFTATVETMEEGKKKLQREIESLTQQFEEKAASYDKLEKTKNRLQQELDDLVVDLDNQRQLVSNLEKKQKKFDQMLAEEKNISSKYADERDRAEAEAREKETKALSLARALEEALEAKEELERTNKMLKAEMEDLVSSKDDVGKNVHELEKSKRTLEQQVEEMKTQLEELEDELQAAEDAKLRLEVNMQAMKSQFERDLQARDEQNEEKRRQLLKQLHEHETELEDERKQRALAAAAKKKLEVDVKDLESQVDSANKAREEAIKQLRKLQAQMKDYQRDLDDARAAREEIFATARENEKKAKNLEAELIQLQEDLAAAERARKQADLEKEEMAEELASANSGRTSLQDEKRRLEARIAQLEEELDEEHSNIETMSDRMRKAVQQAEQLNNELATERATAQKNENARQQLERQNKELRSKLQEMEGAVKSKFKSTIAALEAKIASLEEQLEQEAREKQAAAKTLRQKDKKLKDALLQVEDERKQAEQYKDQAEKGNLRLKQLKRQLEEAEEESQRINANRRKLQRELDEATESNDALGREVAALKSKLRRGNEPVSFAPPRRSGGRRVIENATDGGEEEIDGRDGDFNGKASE
T2 sequence (P02612 whole entry partner): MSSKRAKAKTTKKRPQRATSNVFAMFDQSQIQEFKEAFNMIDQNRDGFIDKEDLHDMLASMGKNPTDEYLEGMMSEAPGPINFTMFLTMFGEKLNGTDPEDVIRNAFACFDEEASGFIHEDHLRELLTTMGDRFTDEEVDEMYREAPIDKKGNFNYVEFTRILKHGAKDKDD
T2 sequence (P02607 whole entry partner): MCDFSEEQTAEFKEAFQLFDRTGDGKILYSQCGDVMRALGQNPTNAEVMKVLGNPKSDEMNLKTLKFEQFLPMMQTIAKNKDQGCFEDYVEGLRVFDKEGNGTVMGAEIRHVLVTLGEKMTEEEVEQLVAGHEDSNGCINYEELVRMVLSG
Chain of PP1c (γ1-isoform) (P36873 whole entry, the tested form may be a part, canonical isoform): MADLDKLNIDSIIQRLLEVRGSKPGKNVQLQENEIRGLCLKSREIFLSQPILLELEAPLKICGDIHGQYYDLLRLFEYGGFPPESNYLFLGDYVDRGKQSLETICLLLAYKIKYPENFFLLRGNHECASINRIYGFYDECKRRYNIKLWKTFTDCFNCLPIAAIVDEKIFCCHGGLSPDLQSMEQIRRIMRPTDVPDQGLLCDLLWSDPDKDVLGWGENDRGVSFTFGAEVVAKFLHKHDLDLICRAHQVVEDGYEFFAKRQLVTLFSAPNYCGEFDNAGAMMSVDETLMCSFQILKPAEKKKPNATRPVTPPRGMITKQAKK
Chain of M21 subunit (as listed by the source): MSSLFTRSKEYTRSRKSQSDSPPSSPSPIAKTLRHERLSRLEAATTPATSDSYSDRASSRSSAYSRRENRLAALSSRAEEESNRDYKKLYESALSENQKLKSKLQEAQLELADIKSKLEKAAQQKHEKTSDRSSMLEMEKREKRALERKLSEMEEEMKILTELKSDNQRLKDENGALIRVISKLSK

B1: M110-(D39-E309): rat aorta M110 fragment, residues 39-309, containing the seven ankyrin repeats (protein, UniProt Q10728 39-309, looked up, fragment)
chain: DDGAVFLAACSSGDTDEVLKLLHRGADINYANVDGLTALHQACIDDNVDMVKFLVENGANINQPDNEGWIPLHAAASCGYLDIAEFLIGQGAHVGAVNSEGDTPLDIAEEEAMEELLQNEVNRQGVDIEAARKEEERIMLRDARQWLNSGHISDVRHAKSGGTALHVAAAKGYTEVLKLLIQAGYDVNIKDYDGWTPLHAAAHWGKEEACRILVDNLCDMETVNKVGQTAFDVADEDILGYLEELQKKQNLLHSEKRDKKSPLIESTANME
effect on the phosphorylase phosphatase activity of PP1GL (PP1GL): can enhance the phosphorylase activity of PP1GL | effect on the phosphorylase phosphatase activity of PP1c (PP1c [1]): did not inhibit the phosphorylase phosphatase activity of PP1c | effect on the phosphorylase phosphatase activity of PP1c (PP1c [1]; each peptide individually, at concentrations up to 1 μM): no effect | effect on the MLC20 phosphatase activity of PP1c (PP1c [2]): failed to stimulate the MLC20 phosphatase activity of PP1c

B2: PP1c: catalytic subunit of PP1 (protein)
chain: ADGELNVDSLITRLLEVRGCRPGKIVQMTEAEVRGLCIKSREIFLSQPILLELEAPLKICGDIHGQYTDLLRLFEYGGFPPEANYLFLGDYVDRGKQSLETICLLLAYKIKYPENFFLLRGNHECASINRIYGFYDECKRRFNIKLWKTFTDCFNCLPIAAIVDEKIFCCHGGLSPDLQSMEQIRRIMRPTDVPDTGLLCDLLWSDPDKDVQGWGENDRGVSFTFGADVVSKFLNRHDLDLICRAHQVVEDGYEFFAKRQLVTLFSAPNYCGEFDNAGGMMSVDETLMCSFQILKPSEKKAKYQYGGLNSGRPVTPPRTANPPKKR
MLC20 phosphatase:phosphorylase phosphatase activity ratio [3]: 0.07 | binding to myosin (myosin): neither PP1c (FIG. 22) nor bovine serum albumin (data not shown) bound to myosin | recognised by digoxigenin-labelled M21 subunit in Far Western blotting (M21 subunit): not

B3: GST-GM-(H100-P350): GST fusion of amino acids 100-350 of human GM (protein)
chain: HTEEYVLAPLFDLPSSKEDLMQQLQIQKAILESTESLLGSTSIKGIIRVLNVSFEKLVYVRMSLDDWQTHYDILAEYVPNSCDGETDQFSFKIVLVPPYQKDGSKVEFCIRYETSVGTFWSNNNGTNYTFICQKKEQEPEPVKPWKEVPNRQIKGCLKVKSSKEESSVTSEENNFENPKNTDTYIPTIICSHEDKEDLEASNRNVKDVNREHDEHNEKELELMINQHLIRTRSTASRDERNTFSTDPVNFP
modifications: left off: a dimerising Fc or GST
notes: GST fusion of amino acids 100-350 of human GM
interaction with PP1 in Far Western experiments (PP1c (γ1-isoform)): not

Source: US6884600B1, “Protein phosphatase-1 catalytic subunit interactions” (Medical Research Council London, priority 1996, dated 2005)
